B1: HEEH_KT_rd6_0790 (parent)
chain: SEEEEEEWRRAKERGEEIIILGILWKPNDEEAERRIKEALRRV

Variants of: B1
Assay: folding stability dG (cDNA display proteolysis); higher = more stable
Conditions: PBS, room temperature

Folding stability dG [kcal/mol] of substitutions, site by site:
E6: W 2.09; A 1.99; Y 2.08; F 1.93; I 1.77; D 2.09; S 1.63; Q 1.72; N 1.85; V 1.64; R 1.65; M 1.87; H 1.61; K 1.72; L 1.93; T 1.58; C 2.44; G 1.46; P 1.35
S1: I 2.61; Q 2.15; P 2.23; D 2.12; W 2.77; E 2.23; L 2.55; N 2.18; R 2.18; H 2.67; A 2.38; K 2.1; F 2.71; T 2.36; G 2.63; M 2.5; Y 2.74; V 2.55; C 2.82
A11: K 1.37; H 1.6; F 1.89; E 1.05; I 2.52; G 1.22; D 0.949
W8: F 2.31; Q 0.919; T 0.835; L 1.95; G 0.818; M 1.34; D 0.922; P 1; H 0.824; N 0.676; R 0.881; K 0.821; Y 1.72; I 1.48; V 1.12; C 1.67; E 0.744; A 0.975; S 0.793
R9: D 1.36; H 1.83; I 1.94; V 1.75; T 1.74; L 2.11; M 1.9; G 1.31; W 1.92; K 1.96; Y 1.95; E 1.94; C 1.75; A 1.91; F 1.85; S 1.62; Q 1.96; N 1.85; P 0.985
R10: Q 1.81; G 1.56; L 1.82; Y 1.69; D 1.2; N 1.69; M 1.86; T 1.55; K 2.04; W 1.77; V 1.72; C 2.25; A 1.82; F 1.56; H 1.76; E 1.33; I 1.8; S 1.5; P 0.8
E2: N 2.27; Y 2.58; A 2.2; I 2.44; R 2.39; D 2.16; F 2.7; S 2.61; G 2.34; T 2.49; M 2.45; L 2.5; P 2.21; Q 2.29; V 2.33; H 2.52; K 2.19; W 2.54; C 2.63
E5: S 1.73; K 1.36; W 2.42; H 1.8; A 1.74; M 2.1; Q 1.6; L 2.17; V 1.73; F 2.13; P 1.91; G 1.41; D 1.93; T 1.79; R 1.47; I 1.95; N 1.83; Y 2.2
E3: F 2.37; K 2.46; H 2.33; V 2.33; P 2.29; W 2.5; T 2.36; A 2.33; Y 2.44; L 2.28; M 2.24; R 2.4; S 2.49; G 2.33; Q 2.33; N 2.36; I 2.32; D 2.35
E7: R 2.97; S 2.31; H 2.14; C 2.59; Y 2.19; F 2.91; M 2.62; W 2.86; A 2.78; N 2.54

From the MegaScale stability set (Tsuboyama et al. 2023)
